Test results from patent publication US6969760.

What was measured:
[1] = target: IFN-γ receptor on 2C4 and mutant γ-1 cells (human HT1080-derived) (human) (UniProt P15260); assay: binding of 125I-labeled IFN-γ to 10^6 2C4 or γ-1 cells, 90 min at 0° C., non-specific binding subtracted
[2] = target: IFN-γ receptor on 2C4 and mutant γ-1 cells (human HT1080-derived) (human) (UniProt P15260); assay: binding of 125I-labeled IFN-γ diluted to a lower specific activity, cells at 0° C.

Substance: 125I-labeled human IFN-γ (from UniProt P01579 24-166) (ligand)
- receptors per cell (specific binding at the highest IFN-γ concentration) (receptors per cell) [1]: 6000
- receptors per cell (saturation binding) (receptors per cell) [2]: 10000
